Patent US12630600B2 (MEDIMMUNE LIMITED, priority 2022, dated 2026)
Starred links: 1 amine or outer side, 2 acyl side, 3 side chain; linkers in the order of their positions; H or OH if unused. Non-standard residues stand in square brackets, D forms with d. Groups on a side chain read outwards from the residue. No end group written: not given here. *: point of attachment. C20 diacid = O=C(O)CCCCCCCCCCCCCCCCCCC(=O)*; C18 diacid = O=C(O)CCCCCCCCCCCCCCCCC(=O)*; γGlu = O=C(O)[C@H](CCC(=O)[*:2])N[*:1]; αMeF = C[C@](N)(Cc1ccccc1)C(=O)O; AEEA = NCCOCCOCC(=O)O; Aib = CC(C)(N)C(=O)O

Tests used:
human glucagon receptor = human glucagon receptor (human, UniProt P47871); test: cell-based or functional assay
human GLP-1 receptor = human GLP-1 receptor (human, UniProt P43220); test: cell-based or functional assay

Binder | cAMP production EC50 (human glucagon receptor) | cAMP production EC50 (human GLP-1 receptor)
H[Aib]QGTFTSDVSK[αMeF]LDTK([AEEA-AEEA-γGlu-C20 diacid])RARDFVQWLL[Aib]TE-NH2 (N-terminus assumed; SMILES CC(C)C[C@H](NC(=O)[C@H](Cc1c[nH]c2ccccc12)NC(=O)[C@H](CCC(N)=O)NC(=O)[C@@H](NC(=O)[C@H](Cc1ccccc1)NC(=O)[C@H](CC(=O)O)NC(=O)[C@H](CCCNC(=N)N)NC(=O)[C@H](C)NC(=O)[C@H](CCCNC(=N)N)NC(=O)[C@H](CCCCNC(=O)COCCOCCNC(=O)COCCOCCNC(=O)CC[C@H](NC(=O)CCCCCCCCCCCCCCCCCCC(=O)O)C(=O)O)NC(=O)[C@@H](NC(=O)[C@H](CC(=O)O)NC(=O)[C@H](CC(C)C)NC(=O)[C@](C)(Cc1ccccc1)NC(=O)[C@H](CCCCN)NC(=O)[C@H](CO)NC(=O)[C@@H](NC(=O)[C@H](CC(=O)O)NC(=O)[C@H](CO)NC(=O)[C@@H](NC(=O)[C@H](Cc1ccccc1)NC(=O)[C@@H](NC(=O)CNC(=O)[C@H](CCC(N)=O)NC(=O)C(C)(C)NC(=O)[C@@H](N)Cc1c[nH]cn1)[C@@H](C)O)[C@@H](C)O)C(C)C)[C@@H](C)O)C(C)C)C(=O)N[C@@H](CC(C)C)C(=O)NC(C)(C)C(=O)N[C@H](C(=O)N[C@@H](CCC(=O)O)C(N)=O)[C@@H](C)O) [Peptide 490] | 396 pM | 69 pM
H[Aib]QGTFTSDVSK[αMeF]LDTK([AEEA-AEEA-γGlu-C18 diacid])RARDFVQWLL[Aib]TE-OH (N-terminus assumed; SMILES CC(C)C[C@H](NC(=O)[C@H](Cc1c[nH]c2ccccc12)NC(=O)[C@H](CCC(N)=O)NC(=O)[C@@H](NC(=O)[C@H](Cc1ccccc1)NC(=O)[C@H](CC(=O)O)NC(=O)[C@H](CCCNC(=N)N)NC(=O)[C@H](C)NC(=O)[C@H](CCCNC(=N)N)NC(=O)[C@H](CCCCNC(=O)COCCOCCNC(=O)COCCOCCNC(=O)CC[C@H](NC(=O)CCCCCCCCCCCCCCCCC(=O)O)C(=O)O)NC(=O)[C@@H](NC(=O)[C@H](CC(=O)O)NC(=O)[C@H](CC(C)C)NC(=O)[C@](C)(Cc1ccccc1)NC(=O)[C@H](CCCCN)NC(=O)[C@H](CO)NC(=O)[C@@H](NC(=O)[C@H](CC(=O)O)NC(=O)[C@H](CO)NC(=O)[C@@H](NC(=O)[C@H](Cc1ccccc1)NC(=O)[C@@H](NC(=O)CNC(=O)[C@H](CCC(N)=O)NC(=O)C(C)(C)NC(=O)[C@@H](N)Cc1c[nH]cn1)[C@@H](C)O)[C@@H](C)O)C(C)C)[C@@H](C)O)C(C)C)C(=O)N[C@@H](CC(C)C)C(=O)NC(C)(C)C(=O)N[C@H](C(=O)N[C@@H](CCC(=O)O)C(=O)O)[C@@H](C)O) [Peptide 487] | 164 pM | 65.5 pM
H[Aib]QGTFTSDVSK[αMeF]LDTK([AEEA-AEEA-γGlu-C20 diacid])RAQDFVQWLL[Aib]E-OH (N-terminus assumed; SMILES CC(C)C[C@H](NC(=O)[C@H](Cc1c[nH]c2ccccc12)NC(=O)[C@H](CCC(N)=O)NC(=O)[C@@H](NC(=O)[C@H](Cc1ccccc1)NC(=O)[C@H](CC(=O)O)NC(=O)[C@H](CCC(N)=O)NC(=O)[C@H](C)NC(=O)[C@H](CCCNC(=N)N)NC(=O)[C@H](CCCCNC(=O)COCCOCCNC(=O)COCCOCCNC(=O)CC[C@H](NC(=O)CCCCCCCCCCCCCCCCCCC(=O)O)C(=O)O)NC(=O)[C@@H](NC(=O)[C@H](CC(=O)O)NC(=O)[C@H](CC(C)C)NC(=O)[C@](C)(Cc1ccccc1)NC(=O)[C@H](CCCCN)NC(=O)[C@H](CO)NC(=O)[C@@H](NC(=O)[C@H](CC(=O)O)NC(=O)[C@H](CO)NC(=O)[C@@H](NC(=O)[C@H](Cc1ccccc1)NC(=O)[C@@H](NC(=O)CNC(=O)[C@H](CCC(N)=O)NC(=O)C(C)(C)NC(=O)[C@@H](N)Cc1c[nH]cn1)[C@@H](C)O)[C@@H](C)O)C(C)C)[C@@H](C)O)C(C)C)C(=O)N[C@@H](CC(C)C)C(=O)NC(C)(C)C(=O)N[C@@H](CCC(=O)O)C(=O)O) [Peptide 484] | 169 pM | 339 pM
H[Aib]QGTFTSDVSK[αMeF]LDLK([AEEA-AEEA-γGlu-C20 diacid])RAQDFVRWLL[Aib]E-OH (N-terminus assumed; SMILES CC(C)C[C@H](NC(=O)[C@H](CC(=O)O)NC(=O)[C@H](CC(C)C)NC(=O)[C@](C)(Cc1ccccc1)NC(=O)[C@H](CCCCN)NC(=O)[C@H](CO)NC(=O)[C@@H](NC(=O)[C@H](CC(=O)O)NC(=O)[C@H](CO)NC(=O)[C@@H](NC(=O)[C@H](Cc1ccccc1)NC(=O)[C@@H](NC(=O)CNC(=O)[C@H](CCC(N)=O)NC(=O)C(C)(C)NC(=O)[C@@H](N)Cc1c[nH]cn1)[C@@H](C)O)[C@@H](C)O)C(C)C)C(=O)N[C@@H](CCCCNC(=O)COCCOCCNC(=O)COCCOCCNC(=O)CC[C@H](NC(=O)CCCCCCCCCCCCCCCCCCC(=O)O)C(=O)O)C(=O)N[C@@H](CCCNC(=N)N)C(=O)N[C@@H](C)C(=O)N[C@@H](CCC(N)=O)C(=O)N[C@@H](CC(=O)O)C(=O)N[C@@H](Cc1ccccc1)C(=O)N[C@H](C(=O)N[C@@H](CCCNC(=N)N)C(=O)N[C@@H](Cc1c[nH]c2ccccc12)C(=O)N[C@@H](CC(C)C)C(=O)N[C@@H](CC(C)C)C(=O)NC(C)(C)C(=O)N[C@@H](CCC(=O)O)C(=O)O)C(C)C) [Peptide 486] | 166 pM | 420 pM
H[Aib]QGTFTSDVSK[αMeF]LDTK([AEEA-AEEA-γGlu-C18 diacid])RAQDFVQWLL[Aib]E-OH [Peptide 483] | 169 pM | 178 pM
H[Aib]QGTFTSDVSK[αMeF]LESK([AEEA-AEEA-γGlu-C18 diacid])RAQDFVQWLL[Aib]E-OH (N-terminus assumed; SMILES CC(C)C[C@H](NC(=O)[C@H](Cc1c[nH]c2ccccc12)NC(=O)[C@H](CCC(N)=O)NC(=O)[C@@H](NC(=O)[C@H](Cc1ccccc1)NC(=O)[C@H](CC(=O)O)NC(=O)[C@H](CCC(N)=O)NC(=O)[C@H](C)NC(=O)[C@H](CCCNC(=N)N)NC(=O)[C@H](CCCCNC(=O)COCCOCCNC(=O)COCCOCCNC(=O)CC[C@H](NC(=O)CCCCCCCCCCCCCCCCC(=O)O)C(=O)O)NC(=O)[C@H](CO)NC(=O)[C@H](CCC(=O)O)NC(=O)[C@H](CC(C)C)NC(=O)[C@](C)(Cc1ccccc1)NC(=O)[C@H](CCCCN)NC(=O)[C@H](CO)NC(=O)[C@@H](NC(=O)[C@H](CC(=O)O)NC(=O)[C@H](CO)NC(=O)[C@@H](NC(=O)[C@H](Cc1ccccc1)NC(=O)[C@@H](NC(=O)CNC(=O)[C@H](CCC(N)=O)NC(=O)C(C)(C)NC(=O)[C@@H](N)Cc1c[nH]cn1)[C@@H](C)O)[C@@H](C)O)C(C)C)C(C)C)C(=O)N[C@@H](CC(C)C)C(=O)NC(C)(C)C(=O)N[C@@H](CCC(=O)O)C(=O)O) [Peptide 482] | 691 pM | 190 pM
H[Aib]QGTFTSDVSK[αMeF]LDTK([AEEA-AEEA-γGlu-C20 diacid])RAQDFVQWLL[Aib]E-NH2 (N-terminus assumed; SMILES CC(C)C[C@H](NC(=O)[C@H](Cc1c[nH]c2ccccc12)NC(=O)[C@H](CCC(N)=O)NC(=O)[C@@H](NC(=O)[C@H](Cc1ccccc1)NC(=O)[C@H](CC(=O)O)NC(=O)[C@H](CCC(N)=O)NC(=O)[C@H](C)NC(=O)[C@H](CCCNC(=N)N)NC(=O)[C@H](CCCCNC(=O)COCCOCCNC(=O)COCCOCCNC(=O)CC[C@H](NC(=O)CCCCCCCCCCCCCCCCCCC(=O)O)C(=O)O)NC(=O)[C@@H](NC(=O)[C@H](CC(=O)O)NC(=O)[C@H](CC(C)C)NC(=O)[C@](C)(Cc1ccccc1)NC(=O)[C@H](CCCCN)NC(=O)[C@H](CO)NC(=O)[C@@H](NC(=O)[C@H](CC(=O)O)NC(=O)[C@H](CO)NC(=O)[C@@H](NC(=O)[C@H](Cc1ccccc1)NC(=O)[C@@H](NC(=O)CNC(=O)[C@H](CCC(N)=O)NC(=O)C(C)(C)NC(=O)[C@@H](N)Cc1c[nH]cn1)[C@@H](C)O)[C@@H](C)O)C(C)C)[C@@H](C)O)C(C)C)C(=O)N[C@@H](CC(C)C)C(=O)NC(C)(C)C(=O)N[C@@H](CCC(=O)O)C(N)=O) [Peptide 485] | 90.4 pM | 219 pM
H[Aib]QGTFTSDVSK[αMeF]LDTK([AEEA-AEEA-γGlu-C20 diacid])RARDFVQWLL[Aib]TE-OH (N-terminus assumed; SMILES CC(C)C[C@H](NC(=O)[C@H](Cc1c[nH]c2ccccc12)NC(=O)[C@H](CCC(N)=O)NC(=O)[C@@H](NC(=O)[C@H](Cc1ccccc1)NC(=O)[C@H](CC(=O)O)NC(=O)[C@H](CCCNC(=N)N)NC(=O)[C@H](C)NC(=O)[C@H](CCCNC(=N)N)NC(=O)[C@H](CCCCNC(=O)COCCOCCNC(=O)COCCOCCNC(=O)CC[C@H](NC(=O)CCCCCCCCCCCCCCCCCCC(=O)O)C(=O)O)NC(=O)[C@@H](NC(=O)[C@H](CC(=O)O)NC(=O)[C@H](CC(C)C)NC(=O)[C@](C)(Cc1ccccc1)NC(=O)[C@H](CCCCN)NC(=O)[C@H](CO)NC(=O)[C@@H](NC(=O)[C@H](CC(=O)O)NC(=O)[C@H](CO)NC(=O)[C@@H](NC(=O)[C@H](Cc1ccccc1)NC(=O)[C@@H](NC(=O)CNC(=O)[C@H](CCC(N)=O)NC(=O)C(C)(C)NC(=O)[C@@H](N)Cc1c[nH]cn1)[C@@H](C)O)[C@@H](C)O)C(C)C)[C@@H](C)O)C(C)C)C(=O)N[C@@H](CC(C)C)C(=O)NC(C)(C)C(=O)N[C@H](C(=O)N[C@@H](CCC(=O)O)C(=O)O)[C@@H](C)O) [Peptide 488] | 301 pM | 202 pM
